We go through one substance from US11407819B2, “Compositions and use of a fibrinogen binding motif present in EFB and COA for therapeutics and vaccines against Staphylococcus aureus” (priority 2013, dated 2022).

One assay addresses T1, rCoa binding to Fg (Homo sapiens, UniProt P02671+P02675+P02679).
T1 construct: full-length human Fibrinogen (diluted in PBS, Enzyme research); purchased Enzyme research; host or cells: Coa probe made in E. coli BL21
T1 sequence (P02671 20-629 limits assumed): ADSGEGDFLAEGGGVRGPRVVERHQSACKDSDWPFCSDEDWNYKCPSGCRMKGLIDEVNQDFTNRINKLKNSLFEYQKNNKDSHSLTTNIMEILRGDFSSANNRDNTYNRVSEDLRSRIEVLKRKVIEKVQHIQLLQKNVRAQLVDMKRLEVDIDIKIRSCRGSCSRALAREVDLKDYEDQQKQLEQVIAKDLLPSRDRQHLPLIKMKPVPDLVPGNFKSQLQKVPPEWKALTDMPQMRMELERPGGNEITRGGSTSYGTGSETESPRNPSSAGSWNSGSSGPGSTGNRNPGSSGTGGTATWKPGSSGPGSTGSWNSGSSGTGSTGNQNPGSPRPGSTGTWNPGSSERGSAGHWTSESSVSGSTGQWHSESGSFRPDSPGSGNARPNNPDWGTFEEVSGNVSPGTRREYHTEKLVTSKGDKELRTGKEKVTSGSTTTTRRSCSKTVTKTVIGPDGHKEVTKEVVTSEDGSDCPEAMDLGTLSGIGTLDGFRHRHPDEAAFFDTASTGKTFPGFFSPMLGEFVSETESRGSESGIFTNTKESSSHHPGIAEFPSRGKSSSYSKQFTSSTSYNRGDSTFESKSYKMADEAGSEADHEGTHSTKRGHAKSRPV
T1 sequence (P02675 31-491): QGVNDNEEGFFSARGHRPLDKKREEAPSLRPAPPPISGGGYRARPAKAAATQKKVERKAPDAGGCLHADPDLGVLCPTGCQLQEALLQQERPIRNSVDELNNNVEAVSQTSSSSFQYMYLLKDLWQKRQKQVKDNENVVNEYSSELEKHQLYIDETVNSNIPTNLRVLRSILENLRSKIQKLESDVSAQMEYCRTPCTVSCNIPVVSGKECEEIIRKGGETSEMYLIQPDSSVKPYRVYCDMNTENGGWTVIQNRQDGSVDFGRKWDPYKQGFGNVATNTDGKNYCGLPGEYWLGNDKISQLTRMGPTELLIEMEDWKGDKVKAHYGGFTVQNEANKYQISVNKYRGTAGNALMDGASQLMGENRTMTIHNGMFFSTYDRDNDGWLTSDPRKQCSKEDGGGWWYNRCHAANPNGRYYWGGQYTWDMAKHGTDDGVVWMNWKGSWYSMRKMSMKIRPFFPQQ
T1 sequence (P02679 27-453): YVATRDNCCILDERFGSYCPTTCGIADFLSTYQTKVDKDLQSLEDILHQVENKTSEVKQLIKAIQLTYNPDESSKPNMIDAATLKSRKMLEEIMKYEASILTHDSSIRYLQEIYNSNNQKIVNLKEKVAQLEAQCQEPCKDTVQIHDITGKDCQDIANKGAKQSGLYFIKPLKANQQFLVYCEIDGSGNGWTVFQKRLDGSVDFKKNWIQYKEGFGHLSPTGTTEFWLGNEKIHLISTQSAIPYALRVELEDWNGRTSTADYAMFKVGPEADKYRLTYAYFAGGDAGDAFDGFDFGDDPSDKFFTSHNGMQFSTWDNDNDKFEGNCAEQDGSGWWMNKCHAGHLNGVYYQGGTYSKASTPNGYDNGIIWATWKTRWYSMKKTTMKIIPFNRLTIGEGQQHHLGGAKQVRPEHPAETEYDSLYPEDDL
Kind of assay: Competition ELISA, peptide inhibition of recombinant Coa binding to Fg. The conditions noted are these: increasing concentrations of peptide; 4 nM GST-tagged Coa proteins. The text has this:
FIG. 9A illustrates a schematic presentation of recombinant Coa fragments generated in this study. Coa is depicted in its secreted form Coa (27-636) lacking the signal peptide (1-26). The N-terminus of Coa (Coa-N; Coa 27-310) constitutes D1D2 prothrombin binding domain. The C-terminus of Coa (Coa-C; Coa 311-636) includes the central region and the tandem-repeat region. The Coa-C further divides into two parts, the Coa-R is corresponding to the tandem-repeat region covering residue 506-636, and the Coa-F fragment covering residues 311-505. Recombinant protein Coa-R0 corresponds to the residues 474-506 residues. […] FIG. 9B illustrates an ELISA assays of GST-tagged Coa fragments binding to immobilized Fg. Open circle, Coa (Coa 27-636); open upright triangle, Coa-N(Coa 27-310); open inverted triangle, Coa-C(Coa 311-636); closed circle, Coa-R (Coa 506-636); closed diamond, Coa-F (Coa 311-505). […] FIG. 9D illustrates the effect of peptide Efb-O on inhibition of rCoa binding to Fg. Increasing concentration of Efb-O were incubated with 4 nM GST-tagged Coa proteins in Fg-coated microtiter wells. Control, BSA.
[…] All proteins were diluted in TBS containing 1% BSA and 0.05% TWEEN® 20 and the ELISA assays were carried out at room temperature.
On the technique in general: An ELISA detects its analyte on a solid surface through an enzyme-linked reagent.

A further assay has as its target T2, rEfb-O binding to Fg (Homo sapiens, UniProt P02671+P02675+P02679).
T2 construct: full-length human Fibrinogen (diluted in PBS, Enzyme research); purchased Enzyme research; host or cells: Efb probe made in E. coli
T2 sequence (P02671 20-629 limits assumed): T1 sequence (P02671 20-629 limits assumed)
T2 sequence (P02675 31-491): T1 sequence (P02675 31-491)
T2 sequence (P02679 27-453): T1 sequence (P02679 27-453)
As to the kind of experiment: Competition ELISA, peptide inhibition of rEfb-O binding to immobilized Fg. Conditions: rEfb-O 5 nM; peptides 2 μM or increasing concentrations. On the procedure:
FIG. 10A is a table of the Efb-O variant peptides were synthesized where each residue in the sequence is individually replaced with Ala (or Ser when the native a.a. is Ala). FIG. 10B is a plot of the Efb-O variant peptides inhibit rEfb-O (5 nM) binding to immobilized Fg in solid phase assay. Wells were coated with 0.25 μg/well Fg. Peptides (2 μM) were mixed with rEfb-O proteins (5 nM) and incubated in the Fg wells for 1 hour. FIG. 10C is a plot showing selected peptides inhibit rEfb-O binding to immobilized Fg. Increasing concentrations of Efb peptides were incubated with 5 nM rEfb-O in Fg-coated microtiter wells. To identify the residues in Efb-O that are important for Fg binding an Alanine scanning approach was used. A panel of Efb-O variant peptides were synthesized where each residue in the sequence is individually replaced with Ala (or Ser when the native a.a. is Ala; FIG. 10A). The individual peptides are then examined for their ability to compete with the binding of rEfb-O (5 nM) to immobilized Fg. […]
In the case of peptide inhibition assay, various concentration of Efb or Coa peptides were mixed with a fixed concentration of Coa-GST or Efb-GST fusion proteins (5-10 nM) in TBS and the bound GST fusion proteins were detected through incubation with HRP-conjugated rabbit anti-GST polyclonal antibodies (5000× dilution). […]

On to “sEfb-O: synthetic peptide mimicking the high affinity Fg-binding motif in Efb (Efb 68-98) (KYIKFKHDYNILEFNDGTFEYGARPQFN)”, for which the “inhibition of recombinant Coa binding to Fg” value with rCoa binding to Fg was “effectively inhibited recombinant Coa binding to Fg”. In addition, the “inhibition of rEfb-O binding to immobilized Fg” value with rEfb-O binding to Fg is “efficiently blocked”.
